Results as given in patent US20090170069A1.

Molecular target: amyloid β-peptide Aβ40, aggregating sample (soluble oligomers, early intermediates) (UniProt P05067)
Experiment: cell-based or functional assay

B1: TJ10 (beta-sheet mini protein) (designed binder)
chain: MAQTFWLSIQGKTLYWQIRIYAIDAAEAEKIFKQYANDNGIDGEWTYDDATKTFTVTE
ThT fluorescence: share of Aβ40 aggregated after 18 h: 38%
